Test: label from the status in PepcDB records

Sequence | protein production
MAETAAGVGRFKTNYAVERKIEPFYKGGKAQLDQTGQHLFCVCGTRVNILEVASGAVLRSLEQEDQEDITAFDLSPDNEVLVTASRALLLAQWAWQEGSVTRLSKAIHTAPVATMAFDPTSTLLATGGCDGAVRVWDIVRHYGTHHFRGSPGVVHLVAFHPDPTRLLLFSSATDAAIRVWSLQDRSCLAVLTAHYSAVTSLAFSADGHTMLSSGRDKICIIWDLQSCQATRTVPVFESVEAAVLLPEEPVSQLGVKSPGLYFLTAGDQGTLRVWEAASGQCVYTQAQPPGPGQELTHCTLAHTAGVVLTATADHNLLLYEARSLRLQKQFAGYSEEVLDVRFLGPEDSHVVVASNSPCLKVFELQTSACQILHGHTDIVLALDVFRKGWLFASCAKDQSVRIWRMNKAGQVMCVAQGSGHTHSVGTVCCSRLKESFLVTGSQDCTVKLWPLPKALLSKNTAPDNGPILLQAQTTQRCHDKDINSVAIAPNDKLLATGSQDRTAKLWALPQCQLLGVFSGHRRGLWCVQFSPMDQVLATASADGTIKLWALQDFSCLKTFEGHDASVLKVAFVSRGTQLLSSGSDGLVKLWTIKNNECVRTLDAHEDKVWGLHCSRLDDHALTGASDSRVILWKDVTEAEQAEEQARQEEQVVRQQELDNLLHEKRYLRALGLAISLDRPHTVLTVIQAIRRDPEACEKLEATMLRLRRDQKEALLRFCVTWNTNSRHCHEAQAVLGVLLRREAPEELLAYEGVRAALEALLPYTERHFQRLSRTLQAAAFLDFLWHNMKLPVPAAAPTPWETHKGALP | failed
MESKEERALNNLIVENVNQENDEKDEKEQVANKGEPLALPLNVSEYCVPRGNRRRFRVRQPILQYRWDIMHRLGEPQARMREENMERIGEEVRQLMEKLREKQLSHSLRAVSTDPPHHDHHDEFCLMP | not failed
MACEGRTMISDTYKVRVNLGLCALAAAITLAGCAGLPDQRLANEALKRGDTALAERNYKALADLGYSEAQVGLADIKVATRDPSQIKEAEATYRAAAATSPRAQARLGRLLVAKPDSTQAEREEAETLLKQAAKQGQSNTLIPLAMLYLSYPQSFPKVNAQQQIDQWRAAGNPEAGLAQVLLYRTQGTYDQHLGEVEKICKAALNTTDICYVELATVYQKRGQADQQAALLGQLKSAYARGAVPATRVDSVARVLADRSLGQTDEKTAKELLEQVAPANPASWVSLAQLVYDFPELGDTDQLMAYIDKGREAEQPRAELLLGRLYYEGKTLPADAQKAEQHLQAAAEAGEISAHYYLGQLYRRGYLGNVEPQKAVDHLLAAARGGQNSADYALAQLFSEGHGIRPQPGNAWVFAQLSQANPTPQSAELLQQLDQQLTPDQRNQAQQLLDQEKRARGSLAQGANSTLALEALQDDEKEVDGEDSL | failed
SQLISADGKVFGSYAHSGDNRIYTRYNEISPDLIKALIATEDVRFRKHSGIDSKGLFRAVVKRGILNQKSGGGGSTITQQLAKLLYSPRTETKLGRLFQKPIEWVIAVKLERFYTKEEIITMYLNYFDFLYNAVGIKSAAYTYFGKQPADLKIEEAAVLVGMCKNPAYYNPVLHG | failed
MKYLKNKIIHFLIFGGIYMDVEVLARAHGQQLVGYEGIKPLSLMGFTSLWMFLVGGLCGVIIGGLNDRPGYYNLKMWKQVLIGGTTITLVELFSGIFFNLYLGLHLWDYSKDRFNFMGQIELKNCIWWYVLPILIIWLDDVLSCYFYGDDRPPSLIMYLVKLVTLR | failed
MSSKRPPAPPPPIPGFKYISLLGSGGFSDVYLYEQDRPRRKVAVKVLLSDLKTEGARRRFESEANLMAQLSSHPYIVTIFEAEITETGHSYLAMEYCSRPSLDVRYRRQRFSVDEVLAVGIQVASAVETAHRAGIVHRDIKPANILVTDYNRPALTDFGISGTIGADTEDDAGMSIPWSPPEQFRGGAVDGVPVDIWALGATLYTLLAGRSPFVLPGQDNSQRELISRITNSPLPRLGRADVPESLELVLATSMAKSPESRYSSAHAFALALQRIQAELNLSVTPFEVLEEPGHGDDQHPDDNFEETRVRSIASIDPDASGTATTGSAPTFPARTFPTTATGASGQPTQPQSLPTSRPQPTNPPQTVQSHAGSSAPPQFHAPAPGSYTAPGSYTAPGTYTAPGTYRASGSHNATAEPDTAESTVLRGWQPSRPQDDLGATVSRSNSPAGASPATREDARPADHSKRNLWLAATGAAVLVVAIVVGVVLGAQAQPKVVPTEAASKPPADALGDGSVPDVEGLIGVKDPEKPDFADFRWTNPQPQSGDMYMWRYRTALIPEGDYEAVTEPHARPYFGGEKQLCIQVIIVRRDGTSSPGDTGSIACVDQ | failed
MKALIFAAAGLLLLLPTFCQSGMENDTNNLAKPTLPIKTFRGAPPNSFEEFPFSALEGWTGATITVKIKCPEESASHLHVKNATMGYLTSSLSTKLIPAIYLLVFVVGVPANAVTLWMLFFRTRSICTTVFYTNLAIADFLFCVTLPFKIAYHLNGNNWVFGEVLCRATTVIFYGNMYCSILLLACISINRYLAIVHPFTYRGLPKHTYALVTCGLVWATVFLYMLPFFILKQEYYLVQPDITTCHDVHNTCESSSPFQLYYFISLAFFGFLIPFVLIIYCYAAIIRTLNAYDHRWLWYVKASLLILVIFTICFAPSNIILIIHHANYYYNNTDGLYFIYLIALCLGSLNSCLDPFLYFLMSKTRNHSTAYLTK | failed
MMHHALHIKNGIVIDPKNGVKAEKMDIFVKNGKIVEESEVKGEDVKVIDANNKLVVAGGVDMHAHIAGSKINTGRTMRPEEMRVVRNIAGKFRAAVGRVLEHHHHHH | not failed
AIARTDSSKMTDVESGVANFASSARAGRRNALPDIQSSAATDGTSDLPLKLEALSVKEDAKEKDEKTTQDQLEKPQNEEK | failed
MVESKTKFEEIRKWVSDHKLRTVGCLWLSGITGSIAYNWSQPAMKTSVKIIHARLHAQALTLAALAGAAVVEYYDHKTEATNRYPKFLPPENLSHKD | failed
MPRVIPPENLGCPPFRALTFDSLGLIKVTEARGQERGIPTVVNTWGEMNASRSVLAASIDDRLRNPLLAVARKDGNVEVINPCNGDLHFSYSVFGDDGCSPEDNEISALHLFRKKIDDQTERSCTLLTCTKKGDVSLRSVKFPDAHGNSTDDASPKTWKACGSGEILVGKVDGSENFSLFGGKRVEANIWDLEQCTKIWSAKCPPKNNLGIFTPTWFTSATFLSKDDHRKFVTGTKSHQVRLYDISTQRRPVLSFDFRETAITSIAEDPDGHTIYVGNASADLASFDIRTGKLLGSFLGKCSGSIRSVVRHPQHQVIASCGLDRYLRVYDVKTRQLISAVFLKQHLTGLVFDSGFSGEETAVANTVAEAATEEKMTIMDQEDDETEKAPVKRKKSKKEKRSREIVFEGEDDEENEDEIEKAPVKTKKSKKEKRSREKVSEGEEKDELRSKKTREHKKKTKIVKHNQED | failed
SSRRRRIVAAARDYVLAHRSRPVGVPELCEQLHVSRRTLQYCFQDVLGMAPATYLRALRLNGVRRDLRGRAADSVQDVAAAWGFWHLSQFATDYRRMFGARPSETLRGALA | failed
MDTGDKEAGEQIVCKPSFFRVSDNHHHPSRAGCPLHQGQARTGSGSPRGQVAGAEKGGDEGGRRGSGGGSSEPRDRRRREQPRAAGDEDGSAGRAHGAQGHGHGGVCGARSQRPALLKPGSRRARGAGGGRMERKGLAARASGNPSPPALGEGPRPGPPPCVPSGGGAPERGQAGAAAEPAELIRRAHEFKSQGAQCYKDKKFREAIGKYHRALLELKGLLPPPGERERDARPASPAGIPKASRLSEEQSKTVEAIEIDCYNSLAACLLQAELVNYERVKEYCLKVLKKEGENFKALYRAGVAFYHLGDYDKALYYLKEARTRQPSDTNVIRYIQLTEMKLSRCSQREKEAM | failed
MASIEQVAELISSLEQATLMAQQIGTTVGQNQLLQISSLRIAHQRLSAFLASIPTAEAEKSFSSVEPMQLGEEEKGEAEPAEEERYSAIEKVEEKMRECFIRNKRLKRPLSPSSAVVETSATEERSGRDYGFDSDPHATKLRALDLIYQFHA | failed

From a protein production outcome set (Wang et al. 2014)
